Experimental findings from publication PMC9482650, “Quantitative fragmentomics allow affinity mapping of interactomes” (Nature Communications, 2022) are described below.

Among the targets are DLG2_1, Q15700; MAGI1_6, Q96QZ7; PDLIM4, P50479; PDZRN4_2, Q6ZMN7; MAGI1_3, Q96QZ7; RIMS1, Q86UR5; PARD3B_3, Q8TEW8; RGS3, P49796-9; MAGIX, Q9H6Y5.
Test in all cases: holdup assay
What all share (set-up): key: below the threshold = too weak to quantify, mostly under pKd 3.1 to 4
Conditions in all cases: plain residues with an end cap or a label only (N-terminal biotin on a linker: ttds)

The target in the next assay is T1, PDZD7_1, Q9H5P4.
T1 sequence (Q9H5P4 81-178, limits assumed, looked up): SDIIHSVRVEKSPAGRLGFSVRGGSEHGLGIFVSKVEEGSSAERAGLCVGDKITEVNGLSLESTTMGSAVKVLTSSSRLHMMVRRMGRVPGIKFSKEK

Another assay deals with T2, USH1C_2, Q9Y6N9.
T2 sequence (Q9Y6N9 206-303, limits assumed, looked up): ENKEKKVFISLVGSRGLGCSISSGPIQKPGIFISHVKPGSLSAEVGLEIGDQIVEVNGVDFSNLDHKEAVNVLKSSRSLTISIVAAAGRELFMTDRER

The next assay has as its target T3, MPDZ_7, O75970.
T3 sequence (O75970 1146-1253, limits assumed, looked up): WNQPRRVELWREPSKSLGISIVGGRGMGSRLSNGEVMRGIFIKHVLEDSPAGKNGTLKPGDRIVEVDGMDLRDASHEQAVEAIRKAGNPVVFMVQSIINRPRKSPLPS

For the next assay, the target named is T4, SNTB2, Q13425.
T4 sequence (Q13425 110-208, limits assumed, looked up): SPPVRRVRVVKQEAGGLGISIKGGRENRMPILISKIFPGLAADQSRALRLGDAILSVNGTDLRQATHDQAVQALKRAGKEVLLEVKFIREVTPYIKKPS

For another assay, the target named is T5, NHERF3_2, Q5T2W1.
T5 sequence (Q5T2W1 129-225, limits assumed, looked up): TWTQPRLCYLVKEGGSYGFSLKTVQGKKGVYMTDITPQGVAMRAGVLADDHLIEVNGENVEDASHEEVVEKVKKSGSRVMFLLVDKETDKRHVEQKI

A further assay addresses T6, PDZD2_6, O15018.
T6 sequence (O15018 2745-2839, limits assumed, looked up): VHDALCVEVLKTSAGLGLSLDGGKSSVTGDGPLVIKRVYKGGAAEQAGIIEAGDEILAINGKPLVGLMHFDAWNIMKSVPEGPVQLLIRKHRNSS

The next assay addresses T7, PTPN13_4, Q12923.
T7 sequence (Q12923 1783-1878, limits assumed, looked up): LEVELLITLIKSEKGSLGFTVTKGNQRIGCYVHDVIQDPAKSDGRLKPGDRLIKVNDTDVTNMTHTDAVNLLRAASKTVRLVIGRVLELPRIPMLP

The target in another assay is T8, USH1C_1, Q9Y6N9.
T8 sequence (Q9Y6N9 82-179, limits assumed, looked up): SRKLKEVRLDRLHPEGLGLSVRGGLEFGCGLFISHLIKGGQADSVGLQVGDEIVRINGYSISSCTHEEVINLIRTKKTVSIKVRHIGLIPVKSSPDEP

A further assay has as its target T9, PARD6B, Q9BYG5.
T9 sequence (Q9BYG5 152-260, limits assumed, looked up): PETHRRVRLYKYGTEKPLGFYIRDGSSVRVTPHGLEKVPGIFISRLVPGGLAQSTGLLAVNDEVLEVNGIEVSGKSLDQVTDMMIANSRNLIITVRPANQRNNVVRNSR

The target of a further assay is T10, PDZD2_3, O15018.
T10 sequence (O15018 581-682, limits assumed, looked up): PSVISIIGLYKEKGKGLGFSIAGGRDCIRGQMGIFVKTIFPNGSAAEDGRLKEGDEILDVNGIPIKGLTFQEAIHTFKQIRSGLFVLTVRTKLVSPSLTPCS

For the next assay, the target named is T11, SHROOM4, Q9ULL8.
T11 sequence (Q9ULL8 5-102, limits assumed, looked up): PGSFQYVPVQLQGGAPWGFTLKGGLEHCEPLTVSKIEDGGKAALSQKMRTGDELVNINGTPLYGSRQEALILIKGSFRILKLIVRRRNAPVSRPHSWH

For a further assay, the target named is T12, SHANK3, Q9BYB0.
T12 sequence (Q9BYB0 641-750, limits assumed, looked up): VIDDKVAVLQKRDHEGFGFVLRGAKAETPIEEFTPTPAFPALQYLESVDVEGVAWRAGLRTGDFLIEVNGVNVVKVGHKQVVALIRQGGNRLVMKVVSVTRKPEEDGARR

A further assay deals with T13, GRIP1_1, Q9Y3R0.
T13 sequence (Q9Y3R0 48-146, limits assumed, looked up): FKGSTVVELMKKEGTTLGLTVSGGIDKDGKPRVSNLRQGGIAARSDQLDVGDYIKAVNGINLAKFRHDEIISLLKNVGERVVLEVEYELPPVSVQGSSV

The next assay has as its target T14, PDZD11, Q5EBL8.
T14 sequence (Q5EBL8 42-139, limits assumed, looked up): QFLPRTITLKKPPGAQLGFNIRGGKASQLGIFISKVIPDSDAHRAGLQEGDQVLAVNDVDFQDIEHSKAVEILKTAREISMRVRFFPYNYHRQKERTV

MAGI1_6, Q96QZ7, sequence (Q96QZ7 1146-1238): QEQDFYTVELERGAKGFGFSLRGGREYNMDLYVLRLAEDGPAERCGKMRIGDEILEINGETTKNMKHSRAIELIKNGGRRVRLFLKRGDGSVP
RIMS1, Q86UR5, sequence (Q86UR5 584-692): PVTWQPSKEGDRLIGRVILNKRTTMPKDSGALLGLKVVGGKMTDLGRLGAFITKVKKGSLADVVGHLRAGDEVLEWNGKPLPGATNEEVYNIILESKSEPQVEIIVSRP
MAGI1_3, Q96QZ7, sequence (Q96QZ7 638-725): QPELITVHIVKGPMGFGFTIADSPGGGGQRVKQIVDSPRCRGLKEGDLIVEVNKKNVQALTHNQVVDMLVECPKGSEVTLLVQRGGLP
PARD3B_3, Q8TEW8, sequence (Q8TEW8 490-594): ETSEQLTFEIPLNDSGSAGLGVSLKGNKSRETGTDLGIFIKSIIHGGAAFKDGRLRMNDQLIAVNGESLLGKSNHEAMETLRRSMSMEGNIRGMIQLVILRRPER
PDZRN4_2, Q6ZMN7, sequence (Q6ZMN7 389-498): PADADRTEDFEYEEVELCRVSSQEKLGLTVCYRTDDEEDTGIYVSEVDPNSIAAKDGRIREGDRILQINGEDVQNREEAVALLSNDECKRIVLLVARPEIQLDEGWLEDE
RGS3, P49796-9, sequence (P49796 other isoform, or with tags, fused parts or gaps): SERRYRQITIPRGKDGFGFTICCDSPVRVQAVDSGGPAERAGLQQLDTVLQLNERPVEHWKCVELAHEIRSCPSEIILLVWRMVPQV
MAGIX, Q9H6Y5, sequence (Q9H6Y5 118-211): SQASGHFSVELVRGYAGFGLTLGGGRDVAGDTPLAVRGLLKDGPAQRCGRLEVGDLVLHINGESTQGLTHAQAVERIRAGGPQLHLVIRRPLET
PDLIM4, P50479, sequence (P50479 1-83): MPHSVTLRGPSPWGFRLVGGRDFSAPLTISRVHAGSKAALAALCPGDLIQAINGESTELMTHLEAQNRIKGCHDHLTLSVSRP

B1: HPV51-E6, P26554 (peptide)
chain: RTRQRNETQV
On to B1, for which the pKd (as a rule, the negative decadic logarithm of the Kd, by convention in mol/L) was 5.06 with DLG2_1, Q15700; “below the threshold” in the assay with PDZD7_1, Q9H5P4; “below the threshold” with MAGI1_6, Q96QZ7; “below the threshold” in the assay with USH1C_2, Q9Y6N9; “below the threshold” with MPDZ_7, O75970; “below the threshold” with SNTB2, Q13425. The negative-log Kd (pKd) result is “below the threshold” with NHERF3_2, Q5T2W1; “below the threshold” with PDZD2_6, O15018; “below the threshold” in the assay with PTPN13_4, Q12923; “below the threshold” in the assay with USH1C_1, Q9Y6N9; “below the threshold” with PARD6B, Q9BYG5; 4.22 in the assay with PDZD2_3, O15018. The negative logarithm of the Kd (pKd) result was “below the threshold” in the assay with PDLIM4, P50479; “below the threshold” with SHROOM4, Q9ULL8; “below the threshold” with PDZRN4_2, Q6ZMN7; “below the threshold” in the assay with MAGI1_3, Q96QZ7; “below the threshold” with SHANK3, Q9BYB0; “below the threshold” in the assay with RIMS1, Q86UR5. In addition, the pKd result was “below the threshold” in the assay with PARD3B_3, Q8TEW8; “below the threshold” with GRIP1_1, Q9Y3R0; “below the threshold” in the assay with RGS3, P49796-9; “below the threshold” with MAGIX, Q9H6Y5; “below the threshold” with PDZD11, Q5EBL8.
